Laboratory results: US20230212587A1, “Mutant Hydroxyphenylpyruvate Dioxygenase Polypeptide, Encoding Gene Thereof and Use Therefor” (Beijing Dabeinong Biotechnology Co., Ltd., priority 2019, published 2023)

B1: BvHPPDm-F372G: Beta vulgaris HPPD mutant F372G, SEQ ID NO: 323 (protein)
chain: MGTLSPQPQTSPSQFKLVGYSNFIRVNPLSDLFPVKRFHHVEFWCGDATNVSRRFSWGLGMPIVAKSDLSTGNSVHASYLLRSGELHFLFTSPYSPSLSSPSSATIPTFSFSLFTSFLTSHGLAVRAVAVEVQDAEAAFHISVSNGASPVSPPIRLHDGVVLSEVHLYGDVVLRYVSTSSVVDGIFLPGFEEMLGESSFQELDFGLRRLDHAVGNVPELAPAIEYVKKFTGFHEFAEFTTEDVGTSESGLNSAVVANNDETVLFPMNEPVYGTKRKSQIQTYLEHNEGAGVQHLALMSEDIFWTLREMRKRSGLGGFEFMPSPPPTYYRNLRNRAADVLSEEQMKECEELGILVDKDDQGTLLQIGTKPIGDRPTMFIEIIQRIGCMMKDEEGKVYQKGGCGGFGKGNFSELFKSIEEYEKTLERKPIADTNAT
modifications: BvHPPDm-F372G Amino Acid Sequence
B2: MsHPPDm-F372G: Medicago sativa HPPD mutant F372G, SEQ ID NO: 321 (protein)
chain: MAIETETQTQTGFKLVGFKNFVRANPKSDRFKVKRFHHVEFWCTDATNTARRFSHGLGMPIVAKSDLSTGNQTHASYLLRSGDLNFLFSAAYSPSISLSSPSSTAAIPTFSASNCFSFSASHGLAVRAVAVEVEDAELAFTTSVNNGAIPSSPPVILENHVKLAEVRLYGDVVLRYVSYNDPNPNQNPNLLFLPGFERVSDESSNSSLDFGIRRLDHAVGNVPELSSAVKYVKDFTGFHEFAEFTAEDVGTSESGLNSVVLANNEETVLLPMNEPVYGTKRKSQIETYLEHNEGAGLQHLALKSEDIFRTLREMRKRSGVGGFEFMPSPPVTYYRNLKNRVGDVLSDEQIKECEELGILVDRDDQGTLLQIGTKPIGDRPTIFIEIIQRVGCMLKDEEGKEYQKGGCGGFGKGNFSELFKSIEEYEKTLETRRTA
modifications: MsHPPDm-F372G Amino Acid Sequence
B3: NtHPPDm-F372G: Nicotiana tabacum HPPD mutant F372G, SEQ ID NO: 325 (protein)
chain: MGKLETVTTTSAAAADDSSELTTNFKLVGFKNFIRTNPRSDFFSVKSFHHIEFWCGDATNTARRFSWSLGMPIAAKSDLSTGNSVHASYLLRPVSGSLQFLFTAPYSPSISTPSSAAIPSFSTSTHRSFTTTHGLGVRAVALEVENAYTAFSASVSRGAKPMFEPVTIDEQVAMAEVHLYGDVVLRFVSYLKDADNLVFLPGFEAMDETASYKELDYGIRRLDHAVGNVPELGPVVDYIKRFTGFHEFAEFTAEDVGTAESGLNSMVLANNDETVLLPLNEPVYGTKRKSQIQTYLEHNEGAGVQHLALVTEDIFKTLTEMRKRSGVGGFEFMPSPPPTYYKNLKNRAGDVLSDEQILACEELGILVDRDDQGTLLQIGTKPVGDRPTIFIEIIQRIGCMLKDGKGQVYQKGGCGGFGKGNFSELFRSIEEYEKTLEAKQANQVAAA
modifications: NtHPPDm-F372G Amino Acid Sequence
B4: HaHPPDm-F372G: Helianthus annuus HPPD mutant F372G, SEQ ID NO: 319 (protein)
chain: MGTEATVAAVVAGDESDHPTSAFKLVGFKNFIRTNPMSDKFTVKNFHHIEFWCSDATNTARRFSWGLGMPIIFKSDLSTGNSTHASYLLRSGHLNFLFTAPYSPSISPTTTTASIPTFSHSASRHFTATHGLAVRAIAVEVEDAETAFAVSVANGAKPSSPPVTLGHNDVVLSEVKLYGDVVLRYVSYKNNTNNNNNNDNDNYIFLPGFEAMDKTSSFQELDYGIRRLDHAVGNVPELAPAVDYVKSFTGFHEFAEFTAEDVGTSESGLNSVVLACNSEMVLIPMNEPVYGTKRKSQIQTYLEHNEGAGVQHLALASEDIFRTLREMRKRSGVGGFEFMPSPPPTYYRNLKSRAGDVLSDEQIKECEELGILVDRDDQGTLLQIGTKPVGDRPTIFIEIIQRVGCMVKDDEGKVQQKAGCGGFGKGNFSELFKSIEEYEKTLEARSTTAA
modifications: HaHPPDm-F372G Amino Acid Sequence

Tested on: Arabidopsis thaliana T1 plants
Assay: Topramezone tolerance of transgenic Arabidopsis thaliana T1 plants (pesticide damage grade by bleached leaf area, score, resistance evaluation)
Assay type: in vivo
Conditions: topramezone 25 g ai/ha (1x); HPPD F372G mutants, Table 6
Method in brief: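 Herbicide tolerance was judged per plant on a bleaching scale (grade 0 no bleaching to grade 3 fully bleached) 7 DAT. Topramezone doses were 0, 25, 50 and 100 g ai/ha on 18-day-old T1 and wild-type plants.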

Molecule	Resistance evaluation
B1	Moderately resistant
B2	Moderately resistant
B3	Poorly resistant
B4	Poorly resistant

Same assay, conditions: topramezone 100 g ai/ha (4x); HPPD F372G mutants, Table 6

Molecule	Resistance evaluation
B1	Non-resistant
B2	Non-resistant
B3	Non-resistant
B4	Non-resistant
